The Immune Epitope Database (IEDB)
Each block holds one sequence with its values, some of them ahead of it.

Tests used:
HLA-A*01:01 = assay: IEDB peptide-MHC binding, purified MHC/direct/fluorescence; filed as Kd, often an IC50 or EC50 that approximates it; ≥ and ≤ were set here for values at or beyond the usual limits of such assays
HLA-A*02:01 = assay: as above
HLA-A*03:01 = assay: as above
HLA-A*11:01 = assay: as above
HLA-A*24:03 = assay: as above
HLA-A*26:01 = assay: as above
HLA-A*69:01 = assay: as above
HLA-B*07:02 = assay: as above
HLA-B*08:01 = assay: as above
HLA-B*15:01 = assay: as above
HLA-B*27:05 = assay: as above
HLA-B*35:01 = assay: as above
HLA-B*40:01 = assay: as above
HLA-B*58:01 = assay: as above
HLA-B*46:01 [1] = assay: IEDB peptide-MHC binding, purified MHC/competitive/fluorescence; filed as Kd, often an IC50 or EC50 that approximates it; ≥ and ≤ were set here for values at or beyond the usual limits of such assays; settings: source organism: Psychromonas sp. PRT-SC03
HLA-A*29:02 = assay: as above
HLA-A*26:02 = assay: IEDB peptide-MHC binding, purified MHC/direct/fluorescence; filed as Kd, often an IC50 or EC50 that approximates it; ≥ and ≤ were set here for values at or beyond the usual limits of such assays; settings: source organism: Coxiella burnetii Q321
HLA-A*31:01 = assay: as above
HLA-A*68:02 = assay: as above; settings: source organism: Coxiella burnetii
HLA-B*08:02 = assay: as above; settings: source organism: Coxiella burnetii Q321
HLA-B*15:17 = assay: as above; settings: source organism: Coxiella burnetii
HLA-B*18:01 = assay: as above; settings: source organism: Coxiella burnetii
HLA-B*46:01 [2] = assay: as above
HLA-B*48:01 = assay: as above; settings: source organism: Coxiella burnetii
HLA-B*57:01 = assay: as above; settings: source organism: Coxiella burnetii
HLA-C*15:02 = assay: as above; settings: source organism: Cryptosporidium parvum Iowa II
HLA-A*30:01 = assay: as above; settings: source organism: Giardia lamblia ATCC 50803
HLA-B*44:02 = assay: as above
HLA-C*14:02 = assay: as above; settings: source organism: Azotobacter vinelandii DJ
[3] = source organism: Enterobacteria phage f1
[4] = source organism: Coxiella burnetii
[5] = source organism: Coxiella burnetii Q321
[6] = source organism: Pseudomonas aeruginosa
[7] = source organism: Ectopseudomonas mendocina
[8] = source organism: Giardia lamblia ATCC 50803
[9] = source organism: Burkholderia mallei ATCC 23344
[10] = source organism: Burkholderia mallei
[11] = source organism: Escherichia coli O157:H7

Sequence: TFMYVFSTF
Kd (HLA-A*01:01; [3]): ≥ 20 µM
Kd (HLA-A*02:01; source organism: Inovirus M13): 8.33 µM
Kd (HLA-A*03:01; [3]): ≥ 20 µM
Kd (HLA-A*11:01; [3]): ≥ 20 µM
Kd (HLA-A*24:03; source organism: Inovirus M13): 0.00639 µM
Kd (HLA-A*26:01; [3]): ≥ 20 µM
Kd (HLA-A*69:01; [3]): ≥ 20 µM
Kd (HLA-B*07:02; [3]): ≥ 20 µM
Kd (HLA-B*08:01; [3]): ≥ 20 µM
Kd (HLA-B*15:01; source organism: Inovirus M13): 0.695 µM
Kd (HLA-B*27:05; [3]): ≥ 20 µM
Kd (HLA-B*35:01; source organism: Inovirus M13): 0.0806 µM
Kd (HLA-B*40:01; [3]): ≥ 20 µM
Kd (HLA-B*58:01; source organism: Inovirus M13): 1.1 µM
Kd (HLA-B*46:01 [1]): ≥ 20 µM

Sequence: PVPDFPYRY
Kd (HLA-A*29:02; source organism: Entamoeba dispar SAW760): 0.0068 µM

Sequence: VFFKQWFEK
Kd (HLA-A*01:01; [4]): ≥ 20 µM
Kd (HLA-A*02:01; [4]): ≥ 20 µM
Kd (HLA-A*03:01; [4]): 0.312 µM
Kd (HLA-A*11:01; [4]): 0.163 µM
Kd (HLA-A*26:01; [5]): ≥ 20 µM
Kd (HLA-A*26:02): ≥ 20 µM
Kd (HLA-A*31:01; [4]): 0.066 µM
Kd (HLA-A*68:02): ≥ 20 µM
Kd (HLA-A*69:01; [4]): ≥ 20 µM
Kd (HLA-B*07:02; [4]): ≥ 20 µM
Kd (HLA-B*08:01; [5]): ≥ 20 µM
Kd (HLA-B*08:02): ≥ 20 µM
Kd (HLA-B*15:01; [4]): ≥ 20 µM
Kd (HLA-B*15:17): ≥ 20 µM
Kd (HLA-B*18:01): ≥ 20 µM
Kd (HLA-B*27:05; [4]): ≥ 20 µM
Kd (HLA-B*40:01; [4]): ≥ 20 µM
Kd (HLA-B*46:01 [2]; [4]): ≥ 20 µM
Kd (HLA-B*48:01): ≥ 20 µM
Kd (HLA-B*57:01): ≥ 20 µM
Kd (HLA-B*58:01; [4]): ≥ 20 µM

Kd (HLA-A*01:01; [6]): 7.32 µM
Kd (HLA-A*02:01; [6]): 18 µM
Kd (HLA-A*03:01; [7]): ≥ 20 µM
Kd (HLA-A*11:01; [7]): ≥ 20 µM
Kd (HLA-A*24:03; [7]): ≥ 20 µM
Kd (HLA-A*26:01; [7]): ≥ 20 µM
Kd (HLA-A*31:01; [7]): ≥ 20 µM
Kd (HLA-A*69:01; [7]): ≥ 20 µM
Kd (HLA-B*07:02; [6]): 7.92 µM
Kd (HLA-B*08:01; [6]): 5.3 µM
Kd (HLA-B*15:01; [7]): ≥ 20 µM
Kd (HLA-B*27:05; [7]): ≥ 20 µM
Kd (HLA-B*35:01; [6]): 0.797 µM
Kd (HLA-B*40:01; [6]): 8.72 µM
Kd (HLA-B*58:01; [7]): ≥ 20 µM
Sequence: FSDARLAKL

Sequence: SFIPIFYQF
Kd (HLA-C*15:02): ≥ 20 µM
Kd (HLA-A*29:02; source organism: Cryptosporidium parvum Iowa II): 0.0022 µM

Sequence: CYPRLWGVR
Kd (HLA-A*01:01; [8]): ≥ 20 µM
Kd (HLA-A*02:01; [8]): ≥ 20 µM
Kd (HLA-A*03:01; [8]): ≥ 20 µM
Kd (HLA-A*11:01; [8]): ≥ 10 µM
Kd (HLA-A*26:01; [8]): ≥ 20 µM
Kd (HLA-A*30:01): 5.83 µM
Kd (HLA-A*69:01; [8]): ≥ 20 µM
Kd (HLA-B*07:02; [8]): 9.36 µM
Kd (HLA-B*08:01; [8]): ≥ 20 µM
Kd (HLA-B*15:01; [8]): ≥ 20 µM
Kd (HLA-B*27:05; [8]): ≥ 20 µM
Kd (HLA-B*40:01; [8]): ≥ 20 µM
Kd (HLA-B*44:02; [8]): ≥ 20 µM
Kd (HLA-B*58:01; [8]): ≥ 20 µM

Sequence: EFDNYRGTI
Kd (HLA-A*01:01; [8]): ≥ 20 µM
Kd (HLA-A*02:01; [8]): ≥ 20 µM
Kd (HLA-A*03:01; [8]): ≥ 20 µM
Kd (HLA-A*11:01; [8]): ≥ 20 µM
Kd (HLA-A*26:01; [8]): ≥ 20 µM
Kd (HLA-A*30:01): 7.45 µM
Kd (HLA-A*31:01; [8]): ≥ 20 µM
Kd (HLA-A*69:01; [8]): ≥ 20 µM
Kd (HLA-B*07:02; [8]): ≥ 20 µM
Kd (HLA-B*08:01; [8]): ≥ 20 µM
Kd (HLA-B*15:01; [8]): ≥ 20 µM
Kd (HLA-B*27:05; [8]): ≥ 20 µM
Kd (HLA-B*40:01; [8]): 16.5 µM
Kd (HLA-B*44:02; [8]): ≥ 20 µM
Kd (HLA-B*58:01; [8]): ≥ 20 µM

Sequence: AMYAPYGPF
Kd (HLA-B*07:02; [9]): 9 µM
Kd (HLA-B*15:01; [10]): ≤ 0.001 µM
Kd (HLA-B*35:01; [9]): 1.88 µM
Kd (HLA-B*46:01 [2]; [10]): 0.958 µM
Kd (HLA-C*14:02): 0.039 µM

Kd (HLA-A*01:01; [11]): ≥ 20 µM
Kd (HLA-A*02:01; [11]): ≥ 20 µM
Kd (HLA-A*03:01; [11]): ≥ 20 µM
Kd (HLA-A*11:01; [11]): ≥ 20 µM
Kd (HLA-A*24:03; [11]): ≥ 20 µM
Kd (HLA-A*26:01; [11]): ≥ 20 µM
Kd (HLA-A*31:01; [11]): ≥ 20 µM
Kd (HLA-A*69:01; [11]): ≥ 20 µM
Kd (HLA-B*07:02; [11]): 11.7 µM
Kd (HLA-B*08:01; [11]): 3.84 µM
Kd (HLA-B*15:01; [11]): 0.93 µM
Kd (HLA-B*27:05; [11]): ≥ 20 µM
Kd (HLA-B*35:01; [11]): 0.937 µM
Kd (HLA-B*40:01; [11]): ≥ 20 µM
Kd (HLA-B*44:02; [11]): ≥ 20 µM
Kd (HLA-B*58:01; [11]): ≥ 20 µM
Sequence: ADLRFASEF
